Test results taken from US20230250176A1 (DRAGONFLY THERAPEUTICS, published 2023).

How the values were obtained:
[1] = molecular target: T1, purified recombinant human FcγRIIa H131 (human, UniProt P12318 36-218, limits assumed); assay: SPR (Biacore 8K), 25 C
T1 sequence (looked up): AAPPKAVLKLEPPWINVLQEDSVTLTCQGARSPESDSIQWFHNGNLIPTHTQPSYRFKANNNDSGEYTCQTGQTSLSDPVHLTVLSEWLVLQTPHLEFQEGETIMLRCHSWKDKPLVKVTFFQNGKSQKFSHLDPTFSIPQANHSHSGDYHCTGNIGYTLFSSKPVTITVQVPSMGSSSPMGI

[2] = molecular target: purified recombinant human FcγRI (human, UniProt P12314 16-288, limits assumed); assay: SPR (Biacore 8K), 25 C
[3] = molecular target: T2, purified recombinant human FcγRIIIa V158 (human, UniProt P08637 17-208); assay: SPR (Biacore 8K), 25 C
T2 construct: also called human CD16 V158; CD16a

[4] = molecular target: T3, human EGFR (wild type) on cells (human, UniProt P00533 25-1210); assay: flow cytometry, NCI-H292 cells
T3 construct: whole, on cells; also called EGFRwt

[5] = molecular target: T3, human EGFR (wild type) on cells; assay: cell-based or functional assay
[6] = molecular target: T4, purified recombinant human EGFR (human, UniProt P00533 25-645); assay: SPR (Biacore 8K), 37 C
T4 construct: the whole entry is named; also called recombinant human epidermal growth factor receptor

[7] = molecular target: purified recombinant rat EGFR (rat, UniProt A0ABK0LZB0 35-651); assay: SPR (Biacore 8K), 37 C
[8] = molecular target: purified recombinant cynomolgus monkey EGFR (cynomolgus monkey, UniProt A0A2K5WK39 25-645); assay: SPR (Biacore 8K), 37 C
[9] = molecular target: purified recombinant mouse EGFR (mouse, UniProt Q01279 25-647, limits assumed); assay: SPR (Biacore 8K), 37 C
[10] = molecular target: T5, cynomolgus monkey CD16a (cynomolgus monkey, UniProt Q8SPW2 17-208, limits assumed); assay: SPR
T5 construct: also called cynomolgus monkey FcγRIIIa

[11] = molecular target: T6, purified recombinant human NKG2D (human, UniProt P26718 78-216, limits assumed); assay: SPR (Biacore 8K), 25 C
T6 sequence (looked up): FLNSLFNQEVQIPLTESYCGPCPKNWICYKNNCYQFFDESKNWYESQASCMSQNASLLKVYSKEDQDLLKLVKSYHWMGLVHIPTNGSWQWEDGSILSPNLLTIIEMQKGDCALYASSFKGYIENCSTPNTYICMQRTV

[12] = molecular target: T3, human EGFR (wild type) on cells; assay: cell-based or functional assay; remark: listed apart in the source
[13] = molecular target: T7, human EGFR T790M, L858R on NCI-H1975 cells (human, UniProt P00533 25-1210); assay: cell-based or functional assay
[14] = molecular target: T3, human EGFR (wild type) on cells; assay: flow cytometry, KYSE-30 cells
[15] = molecular target: T8, human NKG2D on cells (human, UniProt P26718 1-216); assay: cell-based or functional assay
T8 sequence (looked up): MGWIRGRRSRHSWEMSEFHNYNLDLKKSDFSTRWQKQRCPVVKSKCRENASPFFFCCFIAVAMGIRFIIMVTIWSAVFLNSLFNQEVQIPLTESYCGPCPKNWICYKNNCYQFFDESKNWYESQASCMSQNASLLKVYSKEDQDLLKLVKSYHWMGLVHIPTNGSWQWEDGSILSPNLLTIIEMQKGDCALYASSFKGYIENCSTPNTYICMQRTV

[16] = molecular target: T3, human EGFR (wild type) on cells; assay: flow cytometry, HT29 cells
[17] = molecular target: T9, cynomolgus monkey NKG2D on NK cells (cynomolgus monkey, UniProt P61252 1-216); assay: cell-based or functional assay
T9 sequence (looked up): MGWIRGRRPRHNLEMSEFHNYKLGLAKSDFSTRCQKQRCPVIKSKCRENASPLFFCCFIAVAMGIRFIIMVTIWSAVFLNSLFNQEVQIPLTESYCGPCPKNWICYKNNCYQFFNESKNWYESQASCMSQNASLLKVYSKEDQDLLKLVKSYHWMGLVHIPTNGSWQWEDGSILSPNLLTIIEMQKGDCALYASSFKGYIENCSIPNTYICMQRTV

[18] = molecular target: T3, human EGFR (wild type) on cells; assay: cell-based or functional assay; remark: listed apart in the source
[19] = molecular target: T7, human EGFR T790M, L858R on NCI-H1975 …; assay: cell-based or functional assay; remark: listed apart in the source
[20] = molecular target: T10, purified recombinant human FcRn (human, UniProt P55899 24-297; P61769 21-119); assay: SPR (Biacore 8K), 25 C, pH 6.0; pH 6.0
T10 construct: also called neonatal Fc receptor

[21] = molecular target: T11, cynomolgus monkey EGFR on primary cynomolgus monkey esophageal epithelial cells (cynomolgus monkey, UniProt A0A2K5WK39 25-1210); assay: flow cytometry on primary cynomolgus monkey esophageal epithelial cells, anti-human Fc-PE secondary
T11 construct: whole, on cells; also called cynomolgus monkey EGFR-expressing cells

B1: EGFR-TriNKET (bispecific antibody, human IgG1, kappa)
chain: DIQMTQSPSSLSASVGDRVTITCQASQDISNYLNWYQQKPGKAPKLLIYDASNLETGVPSRFSGSGSGTDFTFTISSLQPEDIATYYCQHFRHLPLAFGCGTKVEIKGGGGSGGGGSGGGGSGGGGSQVQLQESGPGLVKPSETLSLTCTVSGGSVSSGDYYWTWIRQSPGKCLEWIGHIYYSGNTNYNPRLKSRLTISIDTSKTQFSLKLSSVTAADTAIYYCVRDRVTGAFDIWGQGTMVTVSSGSDKTHTCPPCPAPELLGGPSVFLFPPKPKDTLMISRTPEVTCVVVDVSHEDPEVKFNWYVDGVEVHNAKTKPREEQYNSTYRVVSVLTVLHQDWLNGKEYKCKVSNKALPAPIEKTISKAKGQPREPRVYTLPPCRDELTKNQVSLTCLVKGFYPSDIAVEWESNGQPENNYKTTPPVLVSDGSFTLYSKLTVDKSRWQQGNVFSCSVMHEALHNHYTQKSLSLSPG
heavy: EVQLVESGGGLVKPGGSLRLSCAASGFTFSSYSMNWVRQAPGKGLEWVSSISSSSSYIYYADSVKGRFTISRDNAKNSLYLQMNSLRAEDTAVYYCARGAPIGAAAGWFDPWGQGTLVTVSSASTKGPSVFPLAPSSKSTSGGTAALGCLVKDYFPEPVTVSWNSGALTSGVHTFPAVLQSSGLYSLSSVVTVPSSSLGTQTYICNVNHKPSNTKVDKKVEPKSCDKTHTCPPCPAPELLGGPSVFLFPPKPKDTLMISRTPEVTCVVVDVSHEDPEVKFNWYVDGVEVHNAKTKPREEQYNSTYRVVSVLTVLHQDWLNGKEYKCKVSNKALPAPIEKTISKAKGQPREPQVCTLPPSRDELTENQVSLTCLVKGFYPSDIAVEWESNGQPENNYKTTPPVLDSDGSFFLYSWLTVDKSRWQQGNVFSCSVMHEALHNHYTQKSLSLSPG
light: DIQMTQSPSSVSASVGDRVTITCRASQGISSWLAWYQQKPGKAPKLLIYAASSLQSGVPSRFSGSGSGTDFTLTISSLQPEDFATYYCQQGVSFPRTFGGGTKVEIKRTVAAPSVFIFPPSDEQLKSGTASVVCLLNNFYPREAKVQWKVDNALQSGNSQESVTEQDSKDSTYSLSSTLTLSKADYEKHKVYACEVTHQGLSSPVTKSFNRGEC
notes: also called EGFR-TriNKET-3
Kd [1]: 1000 nM
Kd [2]: 5.6 nM
koff [2]: 0.00024 s⁻¹
kon [2]: 42000 M⁻¹ s⁻¹
Kd [3]: 53.8 nM
koff [3]: 0.011 s⁻¹
kon [3]: 200000 M⁻¹ s⁻¹
EC50 [4]: 5.3 nM
Max FOB [4]: 800 fold over background
EC50, NK-dependent inhibition at 72 hours, HT29 tumor cells [5]: 0.063 nM
Kd [6]: 4.7 nM
koff [6]: 0.00095 s⁻¹
kon [6]: 200000 M⁻¹ s⁻¹
binding result [7]: no binding
Kd [8]: 5.9 nM
koff [8]: 0.001 s⁻¹
kon [8]: 180000 M⁻¹ s⁻¹
binding result [9]: no binding
Kd [10]: 80.9 nM
Kd [11]: 482 nM
koff [11]: 0.11 s⁻¹
kon [11]: 230000 M⁻¹ s⁻¹
EC50, long-term NK cell-mediated cytotoxicity (IncuCyte, 72 h, 50% human serum), KYSE-30, NK CD16a F/F (n = 2) [12]: 0.015 nM
EC50, long-term NK cell-mediated cytotoxicity, 786-O, NK CD16a F/F (n = 2) [12]: 0.24 nM
EC50, long-term NK cell-mediated cytotoxicity, 786-O, NK CD16a V/F (n = 1) [12]: 0.15 nM
EC50, long-term NK cell-mediated cytotoxicity, HCT116, NK CD16a F/F (n = 2) [12]: 0.28 nM
EC50, long-term NK cell-mediated cytotoxicity, HCT116, NK CD16a V/V (n = 1) [12]: 0.21 nM
EC50, long-term NK cell-mediated cytotoxicity, KYSE-30, NK CD16a V/F (n = 1) [12]: 0.013 nM
EC50, long-term NK cell-mediated cytotoxicity, NCI-H1975, NK CD16a F/F (n = 2) [13]: 0.23 nM
EC50, long-term NK cell-mediated cytotoxicity, NCI-H1975, NK CD16a V/F (n = 1) [13]: 0.09 nM
EC50 [14]: 11 nM
Max FOB [14]: 1800 fold over background
EC50, CD8+ T-cell lysis of 786-O cells [15]: 0.43 nM
EC50, CD8+ T-cell lysis of NCI-H1975 cells [15]: 0.17 nM
EC50 [16]: 1.3 nM
Max FOB [16]: 340 fold over background
EC50, NK cell degranulation and cytokine production, cynomolgus monkey PBMCs with 786-O [17]: 0.023 nM
EC50, NK cell degranulation and cytokine production, cynomolgus monkey PBMCs with NCI-H1975 [17]: 0.037 nM
EC50, NK cell degranulation and cytokine production, human PBMCs with 786-O [18]: 0.089 nM
EC50, NK cell degranulation and cytokine production, human PBMCs with NCI-H1975 [19]: 0.067 nM
Kd [20]: 1000 nM
EC50 [21]: 1.09 nM
